Results as given in paper doi:10.1101/2024.03.15.585299, “Biochemical analysis of the endoribonuclease activity of the human mitochondrial topoisomerase 1”.

T1: scTop1 catalytically inactive (Y272F as printed) (Saccharomyces cerevisiae, UniProt P04786 1-769, Y727F)
T1 sequence: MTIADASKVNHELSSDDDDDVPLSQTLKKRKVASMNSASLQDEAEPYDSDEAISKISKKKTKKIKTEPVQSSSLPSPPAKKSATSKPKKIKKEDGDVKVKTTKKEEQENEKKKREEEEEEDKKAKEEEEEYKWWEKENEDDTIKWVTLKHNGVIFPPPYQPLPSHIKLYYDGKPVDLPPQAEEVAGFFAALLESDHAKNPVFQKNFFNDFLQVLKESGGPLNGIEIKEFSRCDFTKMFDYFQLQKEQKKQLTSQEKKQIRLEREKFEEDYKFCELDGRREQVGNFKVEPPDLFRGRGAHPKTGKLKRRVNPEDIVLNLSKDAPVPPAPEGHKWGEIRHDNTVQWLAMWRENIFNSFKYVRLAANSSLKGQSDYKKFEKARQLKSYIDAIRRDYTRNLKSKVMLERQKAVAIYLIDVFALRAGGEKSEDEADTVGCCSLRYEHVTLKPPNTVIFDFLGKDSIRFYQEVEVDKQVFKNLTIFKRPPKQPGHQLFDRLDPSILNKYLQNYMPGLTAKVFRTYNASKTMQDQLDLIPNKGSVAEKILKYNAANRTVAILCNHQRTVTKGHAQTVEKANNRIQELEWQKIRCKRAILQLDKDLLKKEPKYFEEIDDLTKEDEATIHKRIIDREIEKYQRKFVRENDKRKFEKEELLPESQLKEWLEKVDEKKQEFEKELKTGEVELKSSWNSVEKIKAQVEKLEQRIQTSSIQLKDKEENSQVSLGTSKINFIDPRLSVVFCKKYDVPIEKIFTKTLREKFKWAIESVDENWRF

T2: hTop1mt-Y559F (catalytically inactive) (Homo sapiens, UniProt Q969P6 51-601, Y559F)
T2 sequence: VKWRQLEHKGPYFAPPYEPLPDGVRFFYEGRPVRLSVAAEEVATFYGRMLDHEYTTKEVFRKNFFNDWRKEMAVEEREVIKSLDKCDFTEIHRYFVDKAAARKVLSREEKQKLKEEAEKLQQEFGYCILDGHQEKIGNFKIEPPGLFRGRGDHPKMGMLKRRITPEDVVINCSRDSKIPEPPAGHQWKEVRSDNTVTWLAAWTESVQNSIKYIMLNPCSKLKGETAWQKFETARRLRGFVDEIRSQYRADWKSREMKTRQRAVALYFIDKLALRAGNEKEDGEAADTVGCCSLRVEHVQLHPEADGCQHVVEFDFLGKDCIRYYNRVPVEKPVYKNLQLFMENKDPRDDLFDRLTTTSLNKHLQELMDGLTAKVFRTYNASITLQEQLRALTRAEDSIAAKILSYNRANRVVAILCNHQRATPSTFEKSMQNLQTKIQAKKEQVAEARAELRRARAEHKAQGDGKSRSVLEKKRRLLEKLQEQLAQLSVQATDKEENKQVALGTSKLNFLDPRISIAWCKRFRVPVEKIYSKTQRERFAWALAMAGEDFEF


Assays:
Assay in all cases: fluorescence anisotropy; 20 mM Tris pH 8, 66 mM NaCl, 1 mM DTT, 10% glycerol, 25 C, 10 min; 0.5 nM dsDNA, 0-60 nM Top1
Conditions in all cases: protein: recombinant; tags: GST removed by 3C protease; label: 5'-FAM top strand; blunt
[1] = target: hTop1-Y723F (catalytically inactive) (Homo sapiens, UniProt P11387 1-765, Y723F)
hTop1-Y723F (catalytically inactive), sequence (P11387 whole entry Y723F): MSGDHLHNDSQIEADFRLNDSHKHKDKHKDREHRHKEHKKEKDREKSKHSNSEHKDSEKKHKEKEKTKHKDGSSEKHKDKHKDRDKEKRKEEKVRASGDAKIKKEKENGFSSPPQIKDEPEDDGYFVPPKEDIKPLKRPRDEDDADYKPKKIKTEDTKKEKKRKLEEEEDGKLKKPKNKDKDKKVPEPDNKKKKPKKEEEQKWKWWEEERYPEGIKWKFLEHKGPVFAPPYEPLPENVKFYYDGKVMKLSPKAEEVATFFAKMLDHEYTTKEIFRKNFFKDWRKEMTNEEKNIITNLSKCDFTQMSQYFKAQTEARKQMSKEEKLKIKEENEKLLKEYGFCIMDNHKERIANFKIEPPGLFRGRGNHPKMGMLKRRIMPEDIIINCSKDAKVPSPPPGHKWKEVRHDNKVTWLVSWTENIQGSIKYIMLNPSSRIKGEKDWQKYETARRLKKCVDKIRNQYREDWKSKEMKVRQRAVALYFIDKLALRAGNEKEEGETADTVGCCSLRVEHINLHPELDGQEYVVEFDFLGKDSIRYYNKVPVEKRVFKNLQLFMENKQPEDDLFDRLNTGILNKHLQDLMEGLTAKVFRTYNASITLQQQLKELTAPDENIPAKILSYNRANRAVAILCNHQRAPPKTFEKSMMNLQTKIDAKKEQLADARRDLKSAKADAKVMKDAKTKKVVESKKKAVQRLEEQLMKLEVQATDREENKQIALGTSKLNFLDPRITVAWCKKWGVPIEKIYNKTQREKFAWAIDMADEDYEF

[2] = target: T1, scTop1 catalytically inactive (Y272F as …)
[3] = target: T2, hTop1mt-Y559F (catalytically inactive)

Binder	Kd [1] [nM]	Kd [2] [nM]	Kd [3] [nM]
Substrate A (dsDNA) DNA 1: AGCGTTGAAGATATGTGGCAAAACCTTTGT DNA 2: ACAAAGGTTTTGCCACATATCTTCAACGCT	1.16	3.55	3.5
Substrate C (dsDNA) DNA 1: ACTCGTCACGAGAGAGATGCCACGGTATTTCAAA DNA 2: TTTGAAATACCGTGGCATCTCTCTCGTGACGAGT	1.26	9.47	4.57
Substrate D (dsDNA, single ribonucleotide rG at position 16 of top strand (2 nt upstream of cleavage site), rest DNA) DNA 1: ACTCGTCACGAGAGAGATGCCACGGTATTTCAAA DNA 2: TTTGAAATACCGTGGCATCTCTCTCGTGACGAGT	1.36	8.75	2.29
